According to patent US20230051847A1 (Johns Hopkins, published 2023):

What was measured:
p53^WT/HLA-A*02:01 pHLA [1] = target: p53^WT/HLA-A*02:01 pHLA (human); assay: flow cytometry: scFv phage supernatant on peptide-pulsed T2 cells (HLA-A2+), median fluorescence intensity
Method: Cells were stained with 50 μL of phage supernatant per 50 μL of cells, washed and stained with rabbit anti-M13 antibody, then washed and stained with anti-Rabbit-PE antibody. Cells were stained with a live/dead Near-infrared (IR) dye, washed, and analyzed by an iQue Screener (IntelliCyt, Albuquerque, N. Mex.).
The pulsed cells were pelleted, washed once in cold staining buffer (PBS containing 0.5% BSA, 2 mM EDTA, and 0.1% sodium azide), and resuspended in 50 μL of stain buffer. Phage staining was performed on ice with 50 μL monoclonal phage supernatant for 1 hour, followed by one 800 μL wash in cold staining buffer. Cells were then stained with 1 μg of rabbit anti-M13 antibody (Novus Biologics, Centennial, Colo.) in 100 μL total volume on ice for 1 hour and washed once with 800 μL of cold staining buffer. Cells were then stained with 5 μL anti-rabbit-PE (Biolegend) on ice for 1 hour in 100 μL total volume, followed by incubation with 200 μL LIVE/DEAD Fixable Near-IR Dead Cell Stain (Thermo Fisher) for 10 minutes at room temperature per manufacturer's instructions. Cells were washed once in 800 μL of staining buffer. Stained cells were analyzed using an iQue Screener (IntelliCyt, Albuquerque, N. Mex.).
p53^WT/HLA-A*02:01 pHLA [2] = target: p53^WT/HLA-A*02:01 pHLA (human); assay: ELISA, scDb on biotinylated pHLA on streptavidin plate; protein L, anti-protein L HRP
Method: Streptavidin-coated, 96-well plates (R&D Systems, Minneapolis, Minn., CP004) were coated with 50 ng of biotinylated HLA-A*02:01 pHLA monomers in 50 μL of blocking buffer (PBS with 0.5% BSA, 2 mM EDTA, and 0.1% sodium azide) or 25 ng of recombinant human CD3/6 (Acro Biosystems, DE, CDD-H52W4) at 4° C. overnight. […] Serial dilutions of scDb or IgG was incubated on the plate for 1 hour at RT and washed.

RAS Q61WT[55-64] pHLA-A1 [3] = target: T1, RAS Q61WT[55-64] pHLA-A1 (human); assay: flow cytometry, phage on peptide-pulsed SigM5 cells; anti-M13, anti-rabbit PE
T1 construct: also called Q61WT pHLA-A1; H/K/N RAS WT(55-64) peptide on HLA-A1

RAS Q61WT[55-64] pHLA-A1 [4] = target: T1, RAS Q61WT[55-64] pHLA-A1; assay: flow cytometry: scFv phage supernatant on peptide-pulsed SigM5 cells (HLA-A1+), median fluorescence intensity
RAS Q61WT[55-64] pHLA-A1 [5] = target: T1, RAS Q61WT[55-64] pHLA-A1; assay: ELISA, scDb at 10 nM on titrated biotinylated pHLA-A1 on streptavidin plate; protein L, anti-protein L HRP
[6] = target: T2, CHD4 peptide (…) on HLA-A1 (human); assay: co-culture of peptide-pulsed SigM5 cells with T cells and L2-U scDb; IFNγ release
T2 construct: whole, on cells; on peptide-pulsed SigM5 cells
Method: (A) Each amino acid of the G12V peptide was systematically changed to the other 19 amino acids. T2A3 cells were pulsed with 10 μM of the G12V peptide library. […] Cells were incubated for 24 hour and assayed for secreted IFNγ. […] Cells were incubated for 24 hours and assayed for secreted IFNγ. […] Cells were incubated for 24 hours and assayed for secreted IFNγ.
The library of peptides was generated by systematically substituting each amino acid of the original peptides with the other 19 amino acids. […] Recognition of the variant peptides was evaluated through IFNγ release (FIG. 44, A and B, FIG. 63, A and B). […] Next, using a 20% cognate peptide reactivity as a cutoff for permissive amino acids at each position, decamer binding motifs were generated for each candidate target peptide (Materials and Methods).

RAS Q61WT[55-64] pHLA-A1 [7] = target: T1, RAS Q61WT[55-64] pHLA-A1; assay: ELISA, scDb at 10 nM on titrated biotinylated pHLA-A1 on streptavidin plate; protein L, anti-protein L HRP; remark: listed apart in the source
RAS Q61WT[55-64] pHLA-A1 [8] = target: T1, RAS Q61WT[55-64] pHLA-A1; assay: as above; remark: listed apart in the source
RAS Q61WT[55-64] pHLA-A1 [9] = target: T1, RAS Q61WT[55-64] pHLA-A1; assay: flow cytometry, phage on peptide-pulsed SigM5 cells; anti-M13, anti-rabbit PE; remark: listed apart in the source
RAS Q61WT[55-64] pHLA-A1 [10] = target: T1, RAS Q61WT[55-64] pHLA-A1; assay: as above; remark: listed apart in the source

B1: p53_R175H_A2_cl6 (scFv)
scFv: DIQMTQSPSSLSASVGDRVTITCRASQDVNTAVAWYQQKPGKAPKLLIYSASFLYSGVPSRFSGSRSGTDFTLTISSLQPEDFATYYCQQQSSTPVTFGQGTKVEIKRTGGGSGGGGSGGGASEVQLVESGGGLVQPGGSLRLSCAASGFNVYQSDMHWVRQAPGKGLEWVATIWPYSGYTYYADSVKGRFTISADTSKNTAYLQMNSLRAEDTAVYYCSRDGMYAFDYWGQGTLVTVSS
binding result (p53^WT/HLA-A*02:01 pHLA [1]): no binding

B2: H20-UCHT1-scDb (bispecific antibody)
chain: DIQMTQSPSSLSASVGDRVTITCRASQDVNTAVAWYQQKPGKAPKLLIYSASFLYSGVPSRFSGSRSGTDFTLTISSLQPEDFATYYCQQSNAYPITFGQGTKVEIKGGGGSEVQLQQSGPELVKPGASMKISCKASGYSFTGYTMNWVKQSHGKNLEWMGLINPYKGVSTYNQKFKDKATLTVDKSSSTAYMELLSLTSEDSAVYYCARSGYYGDSDWYFDVWGAGTTVTVSSGGGGSGGGGSGGGGSDIQMTQTTSSLSASLGDRVTISCRASQDIRNYLNWYQQKPDGTVKLLIYYTSRLHSGVPSKFSGSGSGTDYSLTISNLEQEDIATYFCQQGNTLPWTFAGGTKLEIKGGGGSEVQLVESGGGLVQPGGSLRLSCAASGFNLNSYYMHWVRQAPGKGLEWVAMIIPGYGYTNYADSVKGRFTISADTSKNTAYLQMNSLRAEDTAVYYCSRSYYMYMDYWGQGTLVTVSSHHHHHH
notes: single-chain diabody of H20 with the anti-CD3 scFv UCHT1; also called H20-scDb
binding result (p53^WT/HLA-A*02:01 pHLA [2]): binds

B3: H/R/N RAS Q61R_A1_cl6 (R6) (scFv)
scFv: DIQMTQSPSSLSASVGDRVTITCRASQDVNTAVAWYQQKPGKAPKLLIYSASFLYSGVPSRFSGSRSGTDFTLTISSLQPEDFATYYCQQYSNYPLTFGQGTKVEIKRTGGGSGGGGSGGGASEVQLVESGGGLVQPGGSLRLSCAASGFNVFYGSMHWVRQAPGKGLEWVAFIGPDSTYTYYADSVKGRFTISADTSKNTAYLQMNSLRAEDTAVYYCSRDLGSAYAMDYWGQGTLVTVSS
notes: also called Q61R clone R6; R6 scFv
binding result (RAS Q61WT[55-64] pHLA-A1 [3]): no binding (tested: single dose (50 µL phage supernatant))

B4: H/K/N RAS Q61H_A1_cl10 (scFv)
scFv: DIQMTQSPSSLSASVGDRVTITCRASQDVNTAVAWYQQKPGKAPKLLIYSASFLYSGVPSRFSGSRSGTDFTLTISSLQPEDFATYYCQQTYYTPVTFGQGTKVEIKRTGGGSGGGGSGGGASEVQLVESGGGLVQPGGSLRLSCAASGFNISHYVMHWVRQAPGKGLEWVADFYPHSDSTYYADSVKGRFTISADTSKNTAYLQMNSLRAEDTAVYYCSRYQSYSFDYWGQGTLVTVSS
binding result (RAS Q61WT[55-64] pHLA-A1 [4]): no binding

B5: L2-U scDb (bispecific antibody)
chain: DIQMTQSPSSLSASVGDRVTITCRASQDVNTAVAWYQQKPGKAPKLLIYSASFLYSGVPSRFSGSRSGTDFTLTISSLQPEDFATYYCQQAVSYPWTFGQGTKVEIKGGGGSEVQLQQSGPELVKPGASMKISCKASGYSFTGYTMNWVKQSHGKNLEWMGLINPYKGVSTYNQKFKDKATLTVDKSSSTAYMELLSLTSEDSAVYYCARSGYYGDSDWYFDVWGAGTTVTVSSGGGGSGGGGSGGGGSDIQMTQTTSSLSASLGDRVTISCRASQDIRNYLNWYQQKPDGTVKLLIYYTSRLHSGVPSKFSGSGSGTDYSLTISNLEQEDIATYFCQQGNTLPWTFAGGTKLEIKGGGGSEVQLVESGGGLVQPGGSLRLSCAASGFNISSSGIHWVRQAPGKGLEWVAMVYGGSGYTNYADSVKGRFTISADTSKNTAYLQMNSLRAEDTAVYYCSRWAHYSAYMDYWGQGTLVTVSSHHHHHH
notes: also called L2 single chain diabody; H/K/N RAS Q61L(55-64)-A1 cl.2 UCHT1 scDb
binding result (RAS Q61WT[55-64] pHLA-A1 [5]): no binding (tested: 10 ug/mL coated pHLA-A1, scDb at 10 nM)
binding result [6]: no binding (tested: 1 nM scDb)

B6: R6-U scDb (bispecific antibody)
chain: DIQMTQSPSSLSASVGDRVTITCRASQDVNTAVAWYQQKPGKAPKLLIYSASFLYSGVPSRFSGSRSGTDFTLTISSLQPEDFATYYCQQYSNYPLTFGQGTKVEIKGGGGSEVQLQQSGPELVKPGASMKISCKASGYSFTGYTMNWVKQSHGKNLEWMGLINPYKGVSTYNQKFKDKATLTVDKSSSTAYMELLSLTSEDSAVYYCARSGYYGDSDWYFDVWGAGTTVTVSSGGGGSGGGGSGGGGSDIQMTQTTSSLSASLGDRVTISCRASQDIRNYLNWYQQKPDGTVKLLIYYTSRLHSGVPSKFSGSGSGTDYSLTISNLEQEDIATYFCQQGNTLPWTFAGGTKLEIKGGGGSEVQLVESGGGLVQPGGSLRLSCAASGFNVFYGSMHWVRQAPGKGLEWVAFIGPDSTYTYYADSVKGRFTISADTSKNTAYLQMNSLRAEDTAVYYCSRDLGSAYAMDYWGQGTLVTVSSHHHHHH
binding result (RAS Q61WT[55-64] pHLA-A1 [7]): no binding (tested: 10 ug/mL coated pHLA-A1, scDb at 10 nM)

B7: H/K/N RAS Q61H_A1_cl3 (scFv)
scFv: DIQMTQSPSSLSASVGDRVTITCRASQDVNTAVAWYQQKPGKAPKLLIYSASFLYSGVPSRFSGSRSGTDFTLTISSLQPEDFATYYCQQSIYYPFTFGQGTKVEIKRTGGGSGGGGSGGGASEVQLVESGGGLVQPGGSLRLSCAASGFNLYTSQMHWVRQAPGKGLEWVALVYPGYYVTSYADSVKGRFTISADTSKNTAYLQMNSLRAEDTAVYYCSRGAYYYSSAMDYWGQGTLVTVSS
binding result (RAS Q61WT[55-64] pHLA-A1 [4]): no binding

B8: H1-U scDb (bispecific antibody)
chain: DIQMTQSPSSLSASVGDRVTITCRASQDVNTAVAWYQQKPGKAPKLLIYSASFLYSGVPSRFSGSRSGTDFTLTISSLQPEDFATYYCQQVIYYPFTFGQGTKVEIKGGGGSEVQLQQSGPELVKPGASMKISCKASGYSFTGYTMNWVKQSHGKNLEWMGLINPYKGVSTYNQKFKDKATLTVDKSSSTAYMELLSLTSEDSAVYYCARSGYYGDSDWYFDVWGAGTTVTVSSGGGGSGGGGSGGGGSDIQMTQTTSSLSASLGDRVTISCRASQDIRNYLNWYQQKPDGTVKLLIYYTSRLHSGVPSKFSGSGSGTDYSLTISNLEQEDIATYFCQQGNTLPWTFAGGTKLEIKGGGGSEVQLVESGGGLVQPGGSLRLSCAASGFNLYSYAIHWVRQAPGKGLEWVALLYPDYGVTSYADSVKGRFTISADTSKNTAYLQMNSLRAEDTAVYYCSRYRSYEYSVSSYSYSAMDYWGQGTLVTVSSHHHHHH
binding result (RAS Q61WT[55-64] pHLA-A1 [8]): no binding (tested: 10 ug/mL coated pHLA-A1, scDb at 10 nM)

B9: p53_R175H_A2_cl16 (scFv)
scFv: DIQMTQSPSSLSASVGDRVTITCRASQDVNTAVAWYQQKPGKAPKLLIYSASFLYSGVPSRFSGSRSGTDFTLTITSLQPEDFATYYCQQQWSSPDTFGQGTKVEIKRTGGGSGGGGSGGGASEVQLVESGGGLVQPGGSLRLSCAASGFNLSYYDMHWVRQAPGKGLEWVALIYYGSGYTYYADSVKGRFTISADTSKNTAYLQMNSLRAEDTAVYYCSRGSYVSGMDYWGQGTLVTVSS
binding result (p53^WT/HLA-A*02:01 pHLA [1]): no binding

B10: H/K/N RAS Q61H_A1_cl1 (H1) (scFv)
scFv: DIQMTQSPSSLSASVGDRVTITCRASQDVNTAVAWYQQKPGKAPKLLIYSASFLYSGVPSRFSGSRSGTDFTLTISSLQPEDFATYYCQQVIYYPFTFGQGTKVEIKRTGGGSGGGGSGGGASEVQLVESGGGLVQPGGSLRLSCAASGFNLYSYAIHWVRQAPGKGLEWVALLYPDYGVTSYADSVKGRFTISADTSKNTAYLQMNSLRAEDTAVYYCSRYRSYEYSVSSYSYSAMDYWGQGTLVTVSS
notes: also called Q61H clone H1; H1 scFv
binding result (RAS Q61WT[55-64] pHLA-A1 [9]): no binding (tested: single dose (50 µL phage supernatant))

B11: H/K/N RAS Q61H_A1_cl4 (scFv)
scFv: DIQMTQSPSSLSASVGDRVTITCRASQDVNTAVAWYQQKPGKAPKLLIYSASFLYSGVPSRFSGSRSGTDFTLTISSLQPEDFATYYCQQYDYYPFTFGQGTKVEIKRTGGGSGGGGSGGGASEVQLVESGGGLVQPGGSLRLSCAASGFNVFGYAIHWVRQAPGKGLEWVAEVYPGYDVTSYADSVKGRFTISADTSKNTAYLQMNSLRAEDTAVYYCSRYSWAGAFDYWGQGTLVTVSS
binding result (RAS Q61WT[55-64] pHLA-A1 [4]): no binding

B12: H/K/N RAS Q61H_A1_cl2 (scFv)
scFv: DIQMTQSPSSLSASVGDRVTITCRASQDVNTAVAWYQQKPGKAPKLLIYSASFLYSGVPSRFSGSRSGTDFTLTISSLQPEDFATYYCQQYDYYPFTFGQGTKVEIKRTGGGSGGGGSGGGASEVQLVESGGGLVQPGGSLRLSCAASGFNISYEAMHWVRQAPGKGLEWVALIYPNHGITSYADSVKGRFTISADTSKNTAYLQMNSLRAEDTAVYYCSRYSSSAMDYWGQGTLVTVSS
binding result (RAS Q61WT[55-64] pHLA-A1 [4]): no binding

B13: H/K/N RAS Q61L_A1_cl2 (L2) (scFv)
scFv: DIQMTQSPSSLSASVGDRVTITCRASQDVNTAVAWYQQKPGKAPKLLIYSASFLYSGVPSRFSGSRSGTDFTLTISSLQPEDFATYYCQQAVSYPWTFGQGTKVEIKRTGGGSGGGGSGGGASEVQLVESGGGLVQPGGSLRLSCAASGFNISSSGIHWVRQAPGKGLEWVAMVYGGSGYTNYADSVKGRFTISADTSKNTAYLQMNSLRAEDTAVYYCSRWAHYSAYMDYWGQGTLVTVSS
notes: also called Q61L clone L2; L2 scFv
binding result (RAS Q61WT[55-64] pHLA-A1 [10]): no binding (tested: single dose (50 µL phage supernatant))

B14: p53_R175H_A2_cl15 (scFv)
scFv: DIQMTQSPSSLSASVGDRVTITCRASQDVNTAVAWYQQKPGKAPKLLIYSASFLYSGVPSRFSGSRSGTDFTLTISSLQPEDFATYYCQQSSYYPNTFGQGTKVEIKRTGGGSGGGGSGGGASEVQLVESGGGLVQPGGSLRLSCAASGFNLYQRDMHWVRQAPGKGLEWVAGLLYGSDHTEYADSVKGRFTISADTSKNTAYLQMNSLRAEDTAVYYCSRATYEEAFDYWGQGTLVTVSS
binding result (p53^WT/HLA-A*02:01 pHLA [1]): no binding
